Experimental data reported in publication PMC12308385, “Structural and Functional Characteristics of Potent Dioxygenase from Moesziomyces aphidis” (JACS Au, 2025).
Values belong to the molecule of their own block, whether it stands above or below them.

Experiments:
MapADO [1] = biological target: T1, MapADO (Moesziomyces aphidis, UniProt W3VHW6); experiment: X-ray crystal structure (cocrystallization); assay type: binding; settings: 40-fold molar excess ligand; front pocket at Fe2+
T1 construct: gene PaG_05861
T1 sequence (W3VHW6 2-548): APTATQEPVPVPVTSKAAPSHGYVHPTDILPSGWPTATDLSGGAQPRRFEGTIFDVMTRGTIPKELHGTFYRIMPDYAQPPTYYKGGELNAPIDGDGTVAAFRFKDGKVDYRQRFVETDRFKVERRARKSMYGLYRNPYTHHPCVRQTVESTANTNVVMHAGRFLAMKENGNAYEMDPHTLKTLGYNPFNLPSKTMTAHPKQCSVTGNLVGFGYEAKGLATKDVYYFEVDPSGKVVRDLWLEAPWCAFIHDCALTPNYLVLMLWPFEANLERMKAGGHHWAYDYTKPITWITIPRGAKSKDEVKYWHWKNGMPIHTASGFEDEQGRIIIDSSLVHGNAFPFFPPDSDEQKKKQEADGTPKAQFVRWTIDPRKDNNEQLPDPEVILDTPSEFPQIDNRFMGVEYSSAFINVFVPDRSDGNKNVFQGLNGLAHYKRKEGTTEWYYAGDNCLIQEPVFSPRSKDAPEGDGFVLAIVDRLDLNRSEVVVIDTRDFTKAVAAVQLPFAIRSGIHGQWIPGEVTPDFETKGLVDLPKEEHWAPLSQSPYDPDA

MapADO [2] = biological target: T1, MapADO; experiment: inhibition of isoeugenol conversion; assay type: cell-based; settings: equimolar to isoeugenol; enzyme preparation not stated in main text
MapADO [3] = biological target: T1, MapADO; experiment: inhibition of isoeugenol conversion; assay type: cell-based; settings: equimolar to isoeugenol; enzyme preparation not stated in main text; suggested competitive
[4] = substrate: CC=Cc1ccc(O)c(OC)c1; experiment: spectrophotometric monitoring of vanillin formation; assay type: biochemical, Moesziomyces aphidis; settings: co-substrate O2; Fe2+ enzyme
From the text: spectrophotometric monitoring of vanillin formation on MapADO

[5] = substrate: CC=Cc1ccc(O)c(OC)c1; experiment: as above; assay type: biochemical, Thermothelomyces thermophilus; settings: co-substrate O2; Fe2+ enzyme
From the text: spectrophotometric monitoring of vanillin formation on ADO (TtCCO)

% reduction of 1a conversion (MapADO [2]): 60%
Molecule: COc1cc(C=O)ccc1O [compound 1, vanillin]
X-ray crystal structure (cocrystallization) (MapADO [1]): In the 1-bound structure (PDB ID: 9G89), interactions include hydrophobic contacts

% inhibition (MapADO [3]): 25%
Molecule: COc1cccc(C=O)c1O [compound 5, ortho-vanillin]

Molecule: O=Cc1ccc(O)cc1 [compound 3, 4-hydroxybenzaldehyde]
X-ray crystal structure (cocrystallization) (MapADO [1]): The 3-bound structure (PDB ID: 9G8A) shows similar hydrophobic interactions and hydrogen bonds

B1: MapADO (Moesziomyces aphidis) (protein)
chain: APTATQEPVPVPVTSKAAPSHGYVHPTDILPSGWPTATDLSGGAQPRRFEGTIFDVMTRGTIPKELHGTFYRIMPDYAQPPTYYKGGELNAPIDGDGTVAAFRFKDGKVDYRQRFVETDRFKVERRARKSMYGLYRNPYTHHPCVRQTVESTANTNVVMHAGRFLAMKENGNAYEMDPHTLKTLGYNPFNLPSKTMTAHPKQCSVTGNLVGFGYEAKGLATKDVYYFEVDPSGKVVRDLWLEAPWCAFIHDCALTPNYLVLMLWPFEANLERMKAGGHHWAYDYTKPITWITIPRGAKSKDEVKYWHWKNGMPIHTASGFEDEQGRIIIDSSLVHGNAFPFFPPDSDEQKKKQEADGTPKAQFVRWTIDPRKDNNEQLPDPEVILDTPSEFPQIDNRFMGVEYSSAFINVFVPDRSDGNKNVFQGLNGLAHYKRKEGTTEWYYAGDNCLIQEPVFSPRSKDAPEGDGFVLAIVDRLDLNRSEVVVIDTRDFTKAVAAVQLPFAIRSGIHGQWIPGEVTPDFETKGLVDLPKEEHWAPLSQSPYDPDA
Km [4]: 118 ± 13 µM
Vmax [4]: 231 µmol/min/mg
kcat [4]: 238 s⁻¹

B2: ADO (TtCCO) (Thermothelomyces thermophilus ATCC 42464) (protein)
chain: MAHIHDLAPEVSNYSSGRLTPPTPVRFPRTPVFASMNKPCRFEGDVFDLEVSGAIPPDIDGTFFRVQPDHRFPPLFEDDIHFNGDGSVTAIRISGGHADLRQRYVRTERYLLETRARRSLFGRYRNPWTDNESVRGVIRTASNTNVVFWRGALLAMKEDGPPFAMDPVTLETLGRYDFEGQILSPTFTAHPKIDPDTGEMVCFAYEAGGDGSDCSVDVAVWTVDADGKKVEECWYKAPFAGMIHDCGITKNWVVLPLTPIKMDLERMKRGGNKFAWDPSEDQWYGVVPRRGAKSDDIIWFRADNGFHGHVAGCYELPSGEIVFDLTVADGNVFFFFPPDDNITPPADGVAKRNRLSSPTVRWIFDPKAKKSAIRTEAAGDADIWVADERVKPALTWPTNGEFSRIDDRYVTKPYRHFWQAVVDPTRPYDFEKCGPPAGGLFNCLGHYTWSDQNYHHGHNTGDPSGDGRSNGSAEEATAGKFGLQDVYFAGPTMTFQEPTFIPRQGAAEGEGYLIALLNHLDELRNDVVIFEARNLGKGPLAVIHLPLKLKLGLHGNWVDSREIEAWRRRRAENGDVGPLRVAKEPLPWQKKFAAAAQNGSNGV
notes: purified recombinant; construct details not given; genus given only as T
Km [5]: 2240 ± 264 µM
Vmax [5]: 43 µmol/min/mg
kcat [5]: 44 s⁻¹
